How the values were obtained:
Type in all cases: cell-based
[1] = tested on: γ-secretase cleavage of C99; assay: C99-GVP/UAS-luciferase reporter assay with TRPC6 plasmid; conditions: Table 3; luciferase activity, lysed 24 hours after transfection; empty vector = 1
Method: HEK293APP were transfected with C99-GVP/UASLuciferase, CTRL or TRPC6 plasmids, and were lysed 24 hours later. The luciferase activities were determined using the Luciferase assay system (purchased from Promega). β-gal was co-transfected to normalize the transfection efficiency.

[2] = tested on: Aβ levels in HEK293APP stable cells; assay: Aβ ELISA of culture medium, HEK293APP stable cells transfected with TRPC plasmids; conditions: Table 1; HEK293APP stable cell, 1 ug plasmid, medium ELISA after 48 hr; empty vector = 1
Method: (§1) Upon collecting the culture medium of the cells, Aβ40 and Aβ42 levels were quantified with sandwich ELISA kit, respectively (purchased from Invitrogen). The forebrain of the mouse was dissected and separated, and then homogenized with GuHCL. After that, total Aβ was determined by ELISA. For determining TBST(Tris-Buffered Saline and 1% TritonX100, 1% SDS, 1% DOC) soluble and insoluble Aβ, upon TBST homogenation and centrifugation of the forebrain of the mouse, the supernatant was determined for TBST soluble Aβ by ELISA, and the precipitate was determined for TBST insoluble Aβ by ELISA upon another GuHCL homogenate.
(§2) HEK293APP stable cell line was cultured in DMEM culture solution (containing 200 ng/ml G418) with 10% FBS. C0S7C99 cells were cultured in MEM/F12 culture solution (containing 0.4 ug/ml hygromycin B) with 5% FBS, 1% NEAA, and 200 mM Glutamax. All the transfection was conducted by using Lipofectamin 2000 (Invitrogen).
HEK293 cells were inoculated to 60 mm dishes. When the density was close to 80%, 4 ug APP plasmid was transfected with Lipofectamine 2000. After 4 h, the culture medium was replaced and 400 ng/ml of G418 was added. Cells were passage 2 days later and G418 in the culture was maintained at 400 ng/ml. After 2-3 weeks, the cells not transected died gradually, and the survived cells were HEK293 cells expressing APP. Then, G418 was reduced to and maintained at 200 ng/ml.
TRPC6 or TRPC5 was overexpressed in HEK293APP stable cell lines respectively (Cells were passaged into 12-well plates till the densities were close to 80%. Each well was transfected with 1 ug plasmid using Lipofectamine 2000, and the Aβ levels in the medium were determined with ELISA after 48 hr).
Afterwards, HEK293APP stable cells were passaged in 12-well plate till the density approached 80%. Each well was transfected with lug plasmid using Lipofectamine 2000, and the Aβ levels in the culture medium were determined with ELISA after 48 h. The targeting fragment was primarily narrowed down to 437-507aa.
The […] of TRPC6 contains the first transmembrane regions(TM1), the first extracellular loop (Loop1), and the second transmembrane regions (TM2). To further narrow down the active domain, we constructed 3 variant plasmids, with TM2 region replacement by TM1 region (C6-mut1), reversal of TM2 sequence (C6-mut2) or point mutations within TM2 region(C6-mut3). Then HEK293APP stable cells were passaged in 12-well plate. When the density was close to 80%, every well was transfected with lug plasmid using Lipofectamine 2000, and the Aβ levels in the medium were determined with ELISA after 48 h. The active fragment was further narrowed down to 487-507aa.

[3] = tested on: γ-secretase cleavage of Notch; assay: NICD immunoblotting after co-transfection of TRPC6 and Notch plasmids; conditions: immunoblotting 48 h after transfection, 1 ug TRPC6 and 1 ug Notch plasmids
Method: Cells were passaged in 12-well plate till the density approached 80%. Each well was transfected with 1 ug of TRPC6 and 1 ug of Notch plasmids using Lipofectamine 2000. Immunoblotting was used to examine the expression of Notch protein 48 h later. Wherein, NICD (notch intracellular domain) is the intracellular fragment produced by γ-secretase cleavage of Notch ΔE-myc, reflecting the level of γ-secretase cleavage of Notch.

[4] = tested on: γ-secretase cleavage of C99; assay: Aβ ELISA, COS7-C99 stable cells overexpressing TRPC6; conditions: Table 3, 1 ug plasmid, 48 h, empty vector = 1
Method: as §1, §2
C0S7C99 cells overexpressing TRPC6 were obtained by cell-transfection through general method 9 (n=5). The cells were passaged in 12-well plate till the density approached 80%. Each well was transfected with 1 ug plasmid using Lipofectamine 2000, and the Aβ levels in the culture medium were determined with ELISA after 48 h.

B1: TRPC6: transient receptor potential canonical 6 protein, overexpressed from plasmid; SEQ ID NO.:5 (protein, listed as Mus musculus)
chain: MSQSPRFVTRRGGSLKAAPGAGTRRNESQDYLLMDELGDDGYPQLPLPPYGYYPSFRGNENRLTHRRQTILREKGRRLANRGPAYMFNDHSTSLSIEEERFLDAAEYGNIPVVRKMLEECHSLNVNCVDYMGQNALQLAVANEHLEITELLLKKENLSRVGDALLLAISKGYVRIVEAILNHPAFAEGKRLATSPSQSELQQDDFYAYDEDGTRFSHDVTPIILAAHCQEYEIVHTLLRKGARIERPHDYFCKCTECSQKQKHDSFSHSRSRINAYKGLASPAYLSLSSEDPVMTALELSNELAVLANIEKEFKNDYRKLSMQCKDFVVGLLDLCRNTEEVEAILNGDAETRQPGDFGRPNLSRLKLAIKYEVKKFVAHPNCQQQLLSIWYENLSGLRQQTMAVKFLVVLAVAIGLPFLALIYWCAPCSKMGKILRGPFMKFVAHAASFTIFLGLLVMNAADRFEGTKLLPNETSTDNARQLFRMKTSCFSWMEMLIISWVIGMIWAECKEIWTQGPKEYLFELWNMLDFGMLAIFAASFIARFMAFWHASKAQSIIDANDTLKDLTKVTLGDNVKYYNLARIKWDPTDPQIISEGLYAIAVVLSFSRIAYILPANESFGPLQISLGRTVKDIFKFMVIFIMVFVAFMIGMFNLYSYYIGAKQNEAFTTVEESFKTLFWAIFGLSEVKSVVINYNHKFIENIGYVLYGVYNVTMVIVLLNMLIAMINSSFQEIEDDADVEWKFARAKLWFSYFEEGRTLPVPFNLVPSPKSLLYLLLKFKKWMCELIQGQKQGFQEDAEMNKRNEEKKFGISGSHEDLSKFSLDKNQLAHNKQSSTRSSEDYHLNSFSNPPRQYQKIMKRLIKRYVLQAQIDKESDEVNEGELKEIKQDISSLRYELLEEKSQNTEDLAELIRKLGERLSLEPKLEESRR
**Q.** B1 was tested. Which C99-GVP/UAS-Luciferase reporter system [1] did it give?
**A.** 0.4650 ± 0.02628

**Q.** What about the Aβ40 [2] of the same molecule?
**A.** 0.6839 ± 0.07359

**Q.** And the Aβ42 [2]?
**A.** 0.6734 ± 0.06994

**Q.** And the “NICD level (γ-secretase cleavage of NotchΔE-myc)” value [3]?
**A.** did not affect NICD level

**Q.** And the Aβ40 [4]?
**A.** 0.5949 ± 0.06435

**Q.** And the Aβ42 [4]?
**A.** 0.5805 ± 0.04428

Reference: US9790551B2, “Use of TRPC6 mRNA levels in peripheral blood cells for early detection/diagnosis of senile dementia” (Aging Wise Biotechnology, Inc., priority 2013, dated 2017)
